Measured values taken from patent US20230374147A1 (HUMMINGBIRD BIOSCIENCE PTE, published 2023).

T1: His-tagged human BCMA (Acro Biosystems, Cat. #BCA-H522y) (human, UniProt Q02223 1-54)
T1 construct: also called huBCMA; P1; not shown: His tag
T1 sequence: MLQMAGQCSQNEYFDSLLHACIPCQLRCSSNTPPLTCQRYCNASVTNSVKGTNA

T2: human BCMA expressed on cells (human, UniProt Q02223 1-184)
T2 construct: the cell line is named under assay; also called wildtype human BCMA
T2 sequence: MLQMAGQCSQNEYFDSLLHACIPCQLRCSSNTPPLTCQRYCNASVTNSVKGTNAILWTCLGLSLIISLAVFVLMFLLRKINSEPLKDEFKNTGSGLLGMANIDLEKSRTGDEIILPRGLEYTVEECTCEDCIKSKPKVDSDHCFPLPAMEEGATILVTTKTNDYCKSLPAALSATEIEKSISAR

T3: recombinant his-tagged human TACI (Sinobiological cat #11937-H08H) (human, UniProt O14836 1-165)
T3 construct: Bought protein; also called Human TACI-His; huTACI; not shown: His tag
T3 sequence: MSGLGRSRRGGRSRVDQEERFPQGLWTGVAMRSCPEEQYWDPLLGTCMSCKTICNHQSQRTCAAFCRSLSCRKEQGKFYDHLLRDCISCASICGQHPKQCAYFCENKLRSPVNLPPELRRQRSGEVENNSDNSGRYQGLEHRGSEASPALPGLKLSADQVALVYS

T4: His-tagged mouse BCMA (Acro Biosystems, BCA-M52H3) (mouse, UniProt O88472 1-49)
T4 construct: Bought protein; not shown: His tag
T4 chain: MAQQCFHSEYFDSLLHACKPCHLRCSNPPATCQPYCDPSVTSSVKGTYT


Assays:
[1] = target: T5, His-tagged cynomolgous macaque BCMA (Acro Biosystems, BCA-C52H7) (cynomolgus macaque, UniProt Q02223 1-54 (human entry)); assay: ELISA, coated His-tagged cynomolgus BCMA
T5 construct: Bought protein; also called cyno BCMA; CyBCMA; not shown: His tag

[2] = target: T1, His-tagged human BCMA (Acro Biosystems, …); assay: BLI, His-tagged human BCMA on HIS1K tip; R2 0.9973
[3] = target: T2, human BCMA expressed on cells; assay: flow cytometry, H929 cells (BCMA-expressing)
[4] = target: T6, cynomolgous macaque BCMA expressed on CHOK1 cells; assay: flow cytometry, CHOK1 cells transiently expressing cynomolgus BCMA
T6 construct: also called cyno BCMA on cells

[5] = target: T2, human BCMA expressed on cells; assay: flow cytometry, HEK293 cells stably expressing human BCMA
[6] = target: T5, His-tagged cynomolgous macaque BCMA …; assay: BLI, His-tagged cynomolgus BCMA on HIS1K tip; R2 0.9625
[7] = target: T5, His-tagged cynomolgous macaque BCMA …; assay: BLI, His-tagged cynomolgus BCMA on HIS1K tip
[8] = target: T1, His-tagged human BCMA (Acro Biosystems, …); assay: BLI, His-tagged human BCMA on HIS1K tip, no APRIL; R2 0.9901
[9] = target: T3, recombinant his-tagged human TACI …; assay: ELISA, coated His-tagged human TACI
[10] = target: T1, His-tagged human BCMA (Acro Biosystems, …); assay: BLI, His-tagged human BCMA on HIS1K tip
[11] = target: T4, His-tagged mouse BCMA (Acro Biosystems, …); assay: BLI, His-tagged mouse BCMA on HIS1K tip
[12] = target: T5, His-tagged cynomolgous macaque BCMA …; assay: BLI, His-tagged cynomolgus BCMA on HIS1K tip; R2 0.9501
[13] = target: T1, His-tagged human BCMA (Acro Biosystems, …); assay: BLI, His-tagged human BCMA on HIS1K tip; R2 0.9901
[14] = target: T4, His-tagged mouse BCMA (Acro Biosystems, …); assay: BLI, His-tagged mouse BCMA on HIS1K tip; R2 0.9322
[15] = target: T3, recombinant his-tagged human TACI …; assay: BLI (Gator), antibody loaded on HFC biosensor, His-tagged antigen as analyte
[16] = target: T5, His-tagged cynomolgous macaque BCMA …; assay: as above
[17] = target: T1, His-tagged human BCMA (Acro Biosystems, …); assay: as above

Binder	EC50 (read off the curve) [1] [µg/mL]	Kd [2] [nM]	EC50 (read off the curve) [3] [µg/mL]	binding result [4]	EC50 (read off the curve) [5] [µg/mL]	Kd [6] [nM]	Cyno BCMA response [7]	Kd [8] [nM]	binding result [9]	Human BCMA response [10]	Mouse BCMA response [11]	Kd [12] [nM]	Kd [13] [nM]	Kd [14] [nM]	binding result [15]	binding result [16]	binding result [17]
552-LN2-F8 hIgG1 (antibody, V domains shown, Human-mouse chimeric antibody, human IgG1 format; also called [9]) VH: QIQLVQSGPELKKPGETVKISCKASGYTFTDYTMYWVKQAPGKGLKWMGWINTETGEPTYADDFKGRFVFSLETSANTAYLQINNLKNEDTATYFCAISYYYGMDYWGQGTSVTVTS VL: DIILTQSPASLAVSLGQRATITCRASKSVSTSGYNFVYWYQQKPGQPPKLLIYLASNLESGVPARFSGSGSGTDFTLNIHPVEEEDAATYYCQHSRELPRTFGGGTKLEIKR	~0.08	< 0.001	~0.1	binds	~0.5	59.8	1.58	< 0.001	no binding (tested: 10 ug/ml)	2.31							
539-SP5-D7 hIgG1 (antibody, V domains shown, Human-mouse chimeric antibody, human IgG1 format, lambda light chain; also called [4]) VH: EVMLVDSGGNLVKPGGSLKLSCAASGFTFSNYVISWVRQTPEKRLEWVATISTVGTNTYYPDSVRGRFTISRDNAENTLYLQMSSLRSEDTAIYYCSRHKYGYDDPSYAMDYWGQGTSVTVSS VL: QLVLTQSSSASFSLGASAKLTCTLSSQHSTYTIEWYQQQPLKPPKYVMELKKDGSHSTGDGIPDRFSGSSSGADRYLSISNIQAEDEAIYICGVGDTVKEQFVYVFGGGTKVTVLG			~0.3	binds			0.265	< 0.001		2.14	1.01	167	< 0.001	4.86			
1C8-27 hIgG1 (antibody, V domains shown, also called [96]) VH: QVQLVQSGAEVKKPGASVKVSCKASGYTFTNYVMHWVRQAPGQRLEWMGYILPYNDGTKYSQKFQGRVTITRDTSASTAYMELSSLRSEDTAVYYCARYDWEGSFDYWGQGTTVTVSS VL: DIQMTQSPSSLSASVGDRVTITCAASQDISNYLNWYQQKPGKAVKLLMRYTSRLHSGVPSRFSGSGSGTDFTLTISSLQPEDFATYYCQQGNRFPPTFGGGTKLEIKR															binds	binds	binds
